{
  "source": "the Human Domainome abundance scans (Beltran et al. 2025)",
  "parents": {"B1": {"name": "V(D)J recombination-activating protein 2, residues 415 to 491; numbered along this chain, P55895 (parent)", "chain": "YWITCCPTCDVDINTWVPFYSTELNKPAMIYCSHGDGHWVHAQCMDLAERTLIHLSAGSNKYYCNEHVEIARALHTP"}},
  "note": "± gives the uncertainty stated by the source.",
  "data": [
    {"variants_of": "B1", "assay": "abundance fitness (aPCA) (normalised: wild type 0, dead -1); higher = more abundant; growth selection in yeast, the domain comes from the species named", "conditions": "Homo sapiens", "values": [
      {"variant": "YWITCCPTCDVDINTWVPFYSTELNKPAMIYCSPGDGHWVHAQCMDLAERTLIHLSAGSNKYYCNEHVEIARALHTP", "note": "[H34P]", "abundance fitness": "-0.808 ± 0.15"},
      {"variant": "YWITCCPTCDVDINTWVPFYSTELNKPAMIYCSHGDGHWVHAQCIDLAERTLIHLSAGSNKYYCNEHVEIARALHTP", "note": "[M45I]", "abundance fitness": "-0.615 ± 0.098"},
      {"variant": "YWITCCPTCDVDINTWVPFYSTELNKQAMIYCSHGDGHWVHAQCMDLAERTLIHLSAGSNKYYCNEHVEIARALHTP", "note": "[P27Q]", "abundance fitness": "-0.79 ± 0.33"},
      {"variant": "YWITCCPTCRVDINTWVPFYSTELNKPAMIYCSHGDGHWVHAQCMDLAERTLIHLSAGSNKYYCNEHVEIARALHTP", "note": "[D10R]", "abundance fitness": "0.195 ± 0.17"},
      {"variant": "YWITCCPTCVVDINTWVPFYSTELNKPAMIYCSHGDGHWVHAQCMDLAERTLIHLSAGSNKYYCNEHVEIARALHTP", "note": "[D10V]", "abundance fitness": "0.145 ± 0.19"},
      {"variant": "YWITCCPTCDVDITTWVPFYSTELNKPAMIYCSHGDGHWVHAQCMDLAERTLIHLSAGSNKYYCNEHVEIARALHTP", "note": "[N14T]", "abundance fitness": "0.039 ± 0.16"},
      {"variant": "YWITCCPTCDVDANTWVPFYSTELNKPAMIYCSHGDGHWVHAQCMDLAERTLIHLSAGSNKYYCNEHVEIARALHTP", "note": "[I13A]", "abundance fitness": "-0.149 ± 0.39"},
      {"variant": "YWITCCPTCDVDINTWVPFYSTELAKPAMIYCSHGDGHWVHAQCMDLAERTLIHLSAGSNKYYCNEHVEIARALHTP", "note": "[N25A]", "abundance fitness": "-0.124 ± 0.19"},
      {"variant": "YWITCCPTCDVDINTWVPFYSTELNKPAMIYCSHGDGHWVHAQCMDLAERTLIHLSAGSNKYYCNEHVEIAAALHTP", "note": "[R72A]", "abundance fitness": "0.138 ± 0.11"},
      {"variant": "YWITCCPTCDVDINTWVPFYSTELNKPAMIYCSHGDGHWVHAQCMDLAERTLIHLSAGSNKYYCNEHVEIAGALHTP", "note": "[R72G]", "abundance fitness": "0.022 ± 0.11"},
      {"variant": "YWITCCPTCDVDINTWVPFYSTELNKPAMIYCSHRDGHWVHAQCMDLAERTLIHLSAGSNKYYCNEHVEIARALHTP", "note": "[G35R]", "abundance fitness": "-0.374 ± 0.25"},
      {"variant": "YWITCCPTTDVDINTWVPFYSTELNKPAMIYCSHGDGHWVHAQCMDLAERTLIHLSAGSNKYYCNEHVEIARALHTP", "note": "[C9T]", "abundance fitness": "-0.809 ± 0.38"},
      {"variant": "YWITCCPKCDVDINTWVPFYSTELNKPAMIYCSHGDGHWVHAQCMDLAERTLIHLSAGSNKYYCNEHVEIARALHTP", "note": "[T8K]", "abundance fitness": "-0.123 ± 0.17"},
      {"variant": "YWITCCPTCDVDINTWVPFYSTELNKPAMIYCSHGDGHWVHAQCMDLAERTLIHLSWGSNKYYCNEHVEIARALHTP", "note": "[A57W]", "abundance fitness": "-0.276 ± 0.11"},
      {"variant": "YWITCCPTCDVDINTWVPFYSTELNKPAMIYCSHGDGHWRHAQCMDLAERTLIHLSAGSNKYYCNEHVEIARALHTP", "note": "[V40R]", "abundance fitness": "-0.65 ± 0.1"},
      {"variant": "YWITCCPTCDVDINTWVPFYSTELNKPAMIYCSHGDGHWVHAQCMDLAERTLIHLSAPSNKYYCNEHVEIARALHTP", "note": "[G58P]", "abundance fitness": "-0.013 ± 0.11"},
      {"variant": "YWITCCPTCDVDINTWVPFYSTELNKPAMIYCSHGDGHWVHAQCMDLAERTLIHLSAFSNKYYCNEHVEIARALHTP", "note": "[G58F]", "abundance fitness": "-0.221 ± 0.14"},
      {"variant": "YWITCCPTCDVDINTWVPFYSKELNKPAMIYCSHGDGHWVHAQCMDLAERTLIHLSAGSNKYYCNEHVEIARALHTP", "note": "[T22K]", "abundance fitness": "0.052 ± 0.19"},
      {"variant": "YWITCCPTCDVDINTWVPFYSTELNKPAMIYCSHGDGHWVHAQCMDLAERTLEHLSAGSNKYYCNEHVEIARALHTP", "note": "[I53E]", "abundance fitness": "-0.194 ± 0.13"},
      {"variant": "YWITCCPTCDVDINTWVPFYSTELNKPAMIYCSHGDGHWVHAQCMDLAERTHIHLSAGSNKYYCNEHVEIARALHTP", "note": "[L52H]", "abundance fitness": "-0.597 ± 0.42"},
      {"variant": "YWITCCPTCDVDINTWVPFYSTELNKPPMIYCSHGDGHWVHAQCMDLAERTLIHLSAGSNKYYCNEHVEIARALHTP", "note": "[A28P]", "abundance fitness": "-0.334 ± 0.21"},
      {"variant": "YWITCCPTCDVDINTWVPFYSTELNKPAMIYCSHGDGHWVHAQCMDLAERTLIHLSAGSNKYYCNEHVEIARALHPP", "note": "[T76P]", "abundance fitness": "0.054 ± 0.11"},
      {"variant": "YWITCCPTCDVDINTWVPFYSTELNKPAMIYCSHGYGHWVHAQCMDLAERTLIHLSAGSNKYYCNEHVEIARALHTP", "note": "[D36Y]", "abundance fitness": "-0.32 ± 0.41"},
      {"variant": "YWITCCPTCDVDINTWVPFYSTEMNKPAMIYCSHGDGHWVHAQCMDLAERTLIHLSAGSNKYYCNEHVEIARALHTP", "note": "[L24M]", "abundance fitness": "-0.319 ± 0.21"},
      {"variant": "YWITCCPTCDVDINTWVPFYYTELNKPAMIYCSHGDGHWVHAQCMDLAERTLIHLSAGSNKYYCNEHVEIARALHTP", "note": "[S21Y]", "abundance fitness": "-0.027 ± 0.21"},
      {"variant": "YWITCCPTCDVDINTWVPFYPTELNKPAMIYCSHGDGHWVHAQCMDLAERTLIHLSAGSNKYYCNEHVEIARALHTP", "note": "[S21P]", "abundance fitness": "-0.004 ± 0.12"},
      {"variant": "YWITCCPTCDVDINTWVPFYSTELNKPAMIYCSHGDGHWVHAQCMMLAERTLIHLSAGSNKYYCNEHVEIARALHTP", "note": "[D46M]", "abundance fitness": "0.071 ± 0.07"},
      {"variant": "YWIACCPTCDVDINTWVPFYSTELNKPAMIYCSHGDGHWVHAQCMDLAERTLIHLSAGSNKYYCNEHVEIARALHTP", "note": "[T4A]", "abundance fitness": "-0.122 ± 0.046"},
      {"variant": "YWITCCPTCDVDINTWVPFYSTELNKPAMIYCSHGDGHWVHAQCMDLAERTLIHLSAGSNKYYCLEHVEIARALHTP", "note": "[N65L]", "abundance fitness": "0.008 ± 0.054"},
      {"variant": "YWITCCPTCDVDINTWVPFYSTELNKPAMIYCSHGDGHWVHAQCMDLAERTLIHLSAGSNKYYCWEHVEIARALHTP", "note": "[N65W]", "abundance fitness": "0.036 ± 0.078"},
      {"variant": "YWITCCPTCDVDINTWVPFYSTELNKPAMIYCSHGDGHWVHAQCMDLAERTLIHLSAGSNKYYCTEHVEIARALHTP", "note": "[N65T]", "abundance fitness": "-0.005 ± 0.074"},
      {"variant": "YWITCCPTCDVDINTWVPFYSTELNKPAMIYCSHGDGHWVHAQCMDLAERTLIHLSAGSNKYYCCEHVEIARALHTP", "note": "[N65C]", "abundance fitness": "-0.138 ± 0.1"},
      {"variant": "YWITCCPTCDVDINTWVPFYSTELNKPAMIYCSHGDGHWVHAQCMDLAERTLIHLSAGSNKYYCNEHVEIARALHTN", "note": "[P77N]", "abundance fitness": "-0.325 ± 0.35"},
      {"variant": "YWITCCPTCDVDINTWVPFYSTELNKPAMIYCSHGDGHWVHAQCMDLAERTLIHLSAGSIKYYCNEHVEIARALHTP", "note": "[N60I]", "abundance fitness": "-0.045 ± 0.099"},
      {"variant": "YWITCCPTCDVDINTWVPFYSTELNKPAMINCSHGDGHWVHAQCMDLAERTLIHLSAGSNKYYCNEHVEIARALHTP", "note": "[Y31N]", "abundance fitness": "-0.322 ± 0.14"},
      {"variant": "YWITCCPTCDVDINTWVPFYSTELNKPAMIYCSHGDGHWVHAQCMDLAERTLIHLSAGSNKGYCNEHVEIARALHTP", "note": "[Y62G]", "abundance fitness": "-0.495 ± 0.071"}
    ]}
  ]
}
